From US20250346890A1, “LEUKEMIA TREATMENT” (Deutsches Krebsforschungszentrum, priority 2019, published 2025) come the findings set out here.

The test system of one assay is BMP4 signaling. Briefly: BRE reporter assay in HEPG2 cells stimulated by BMP4. It counts as cell-based, human. As for the experimental part: BRE luciferase assays were executed using 300,000 ml^−1 of HEPG2 cells in 24-well plates. PGL3-BRE-Luciferase (500 ng ml^−1) and pRL-TK-Renilla plasmids (50 ng ml^−1) were transfected using Lipofectamine 3000. After 24 hours, cells were serum starved 2 hours and stimulated 14-16 hours with 80 ng ml^−1 recombinant human BMP4 protein (R&D systems 314-BP) along with AP tagged RSPO1-4 or flag tagged RSPO1-3 conditioned medium. Luciferase activity was measured with the Dual luciferase reporter assay system (Promega E1960). Firefly luminescence (BRE) was normalized to Renilla. TOPFlash luciferase assays were carried out as previously described (Berger et al. (2017), EMBO Rep 18, 712-725, doi: 10.15252/embr.201643585). […] Statistical analyses were made with the PRISM7 software using unpaired t-test or one-way ANOVA test. Not significant (ns) P>0.05, *P<0.05, **P<0.01, ***P<0.001, and ****P<0.0001.
On the technique in general: A reporter such as luciferase makes a cellular process visible.

A further assay concerns Smad1. Kind of assay: Western blot of pSmad1 and tSmad1 in HEPG2 cells. It counts as cell-based, human. As for the experimental part: Cultured cells were rinsed with cold PBS and lysed in Triton lysis buffer ([…] Tris-Cl, pH 7.5, 1% Triton X-100, 150 mM NaCl, 1 mM EDTA, 1 mM EGTA, 1 mM β-glycerophosphate, 1 mM Na3 VO4) or RIPA buffer with complete Protease Inhibitor Cocktail (Roche 11697498001). Lysates were mixed with Laemmli buffer with β-mercaptoethanol and boiled at 95° C. for 5 min to prepare SDS-PAGE samples. Western blot images were acquired with SuperSignal West pico ECL (ThermoFisher 34580) or Clarity Western ECL (Biorad 1705061) using LAS-3000 system (FujiFilm). Quantification of blots was done using ImageJ software.

Another assay has as its system ID1. Kind of assay: qRT-PCR analysis of ID1 in HEPG2 cells. To be noted: BMP4. It counts as cell-based, human. As for the experimental part: (§1) Cultured cells were lysed in Macherey-Nagel RAI buffer containing 1% β-mercaptoethanol and total RNAs were isolated using NucleoSpin RNA isolation kit (Macherey-Nagel 740955). Reverse transcription and PCR amplification were performed. Primers used in this study are listed in Supplementary Table 1. Graphs show relative gene expressions to GAPDH. […] Statistical analyses were performed using PRISM7 software with unpaired t-test or one-way ANOVA test.
For orientation: In qPCR the cycle at which signal appears reflects the starting amount.

In assay [1] the target is T1, extracellular domain of ALK3 (Homo sapiens, UniProt P36894).
T1 construct: made in house; host or cells: HEK293T (conditioned medium)
T1 sequence (P36894 24-152 limits assumed): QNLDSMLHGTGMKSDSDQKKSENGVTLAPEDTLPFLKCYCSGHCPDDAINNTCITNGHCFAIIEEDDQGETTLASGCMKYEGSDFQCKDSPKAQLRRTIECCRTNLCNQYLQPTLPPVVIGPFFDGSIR
Kind of assay: In vitro binding assay RSPO / ALK3^ECD (Scatchard plot). As for the experimental part: (§2) High binding 96-well plates (Greiner M5811) were coated with 2 μg ml^−1 of recombinant human RSPO1 (Peprotech 120-38), RSPO2 (Peprotech 120-43), RSPO3 (Peprotech 120-44) or FGF8b (Peprotech 100-25) recombinant protein reconstituted in bicarbonate coating buffer (50 mM NaHCO3, pH 9.6) overnight at 4° C. Coated wells were washed three times with TBST (TBS, 0.1% Tween-20) and blocked with 5% BSA in TBST for 1 hour at room temperature. 1.5 U ml^−1 of ALK3^ECD-AP or control conditioned medium was incubated overnight at 4° C. Wells were washed six times with TBST and bound AP activity was measured by the chemiluminescent SEAP Reporter Gene Assay kit (Abcam ab 133077). For ZNRF3-ALK3 binding assay, plates were coated with recombinant human ZNRF3 Fc Chimera protein (R&D systems 7994-RF). ALK3^ECD-AP was preincubated with RSPO2-Flag, RSPO2^ΔTSP-Flag conditioned medium or recombinant RSPO protein prior to treatment. Control conditioned medium and vesicles were used as control. […] Statistical analyses show unpaired t-tests.

Another assay deals with T2, ZNRF3 and ALK3^ECD (Homo sapiens, UniProt P36894+Q9ULT6).
T2 construct: purchased R&D systems 7994-RF
T2 sequence (Q9ULT6 56-219 limits assumed): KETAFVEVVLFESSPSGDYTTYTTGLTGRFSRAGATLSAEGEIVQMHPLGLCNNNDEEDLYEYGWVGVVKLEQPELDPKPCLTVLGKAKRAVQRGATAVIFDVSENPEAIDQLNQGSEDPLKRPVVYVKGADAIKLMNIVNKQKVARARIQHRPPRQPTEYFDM
T2 sequence (P36894 24-152 limits assumed): as the sequence (P36894 24-152 limits assumed) above
Briefly: In vitro binding assay for ZNRF3 and ALK3^ECD. To be noted: plates coated with ZNRF3 Fc, ALK3^ECD-AP preincubated with the protein. As to the method: as §2

The next assay concerns THP-1 cells. Briefly: Monocyte-macrophage differentiation of THP-1 cells (FACS / qRT-PCR of CD14, CD11B). To be noted: THP-1 cells, co-treatment of ATRA with RSPO2. It is filed as cell-based, human. As for the experimental part:
as §1
For analyzing macrophage differentiation of THP-1, cells were harvested, pelleted and resuspended in ice-cold blocking buffer (PBS supplemented with 1% BSA and 0.1% NaN3). Cells were treated with Fc Receptor Binding Inhibitor as recommended by the manufacturer (eBioscience 14916173) and stained directly with FITC/APC-conjugated antibodies diluted in blocking buffer or with non-conjugated primary antibodies followed by fluorochrome-labeled secondary antibodies. Isotype-matched antibodies were used as controls. Dead cells were excluded by counterstaining with propidium iodide. For analyzing apoptosis of THP-1, cells were fixed in 4% PFA, permeabilized by MeOH and blocked with PBS supplemented with 1% BSA and 0.1% Tween-20. Cells were stained with anti-active Caspase-3 antibody and fluorochrome-labeled secondary antibody. FACS Samples were analyzed with FACSCalibur or FACSCanto (BD Biosciences). 10,000 events per samples were acquired, and results were processed with Cell Quest or FACSDiva software (BD Biosciences). For BMP4 stimulation, cells were treated with 5 and 25 ng ml^−1 recombinant human BMP4 protein (R&D systems 314-BP). 100, 300 and 1000 nM LDN […] (Tocris 6053) were used for rescue assay. For the THP-1 cell number quantification and differentiation validation in vivo, bone marrow cells were harvested from tibias of NSG mice and red blood cells were removed by ACK Lysing Buffer (Gibco A1049201). Cells were stained and analyzed as above. Here, 50,000 PI-negative events per samples were acquired.
THP-1 cells were treated with 0.3, 1.0 and 3.0 μg ml^−1 goat polyclonal anti-RSPO2 antibodies (R&D systems AF3266) or goat polyclonal GFP antibodies (ABIN 100085). After 48 hours, medium was replaced including fresh antibodies—and incubated another 24 hours. Western blot analysis and FACS analyses were performed as discussed above.
The sequences of shRSPO2 and shControl (Table 1) were synthesized, inserted into the transfer plasmid Tet-pLKO-puro (Addgene 21915) and validated by sequencing. Lentivirus was produced with the 3rd generation lentiviral system according to the protocol available at the Trono lab as described (www.epfl.ch/labs/tronolab/). THP-1 cells were infected with lentivirus with 8 μg ml^−1 Polybrene (Sigma TR-1003) and selected with 0.5 μg ml^−1 puromycin (Calbiochem 540411). Single cell clones were obtained by limiting dilutions. The shRNA expression of clones was validated by monitoring RSPO2 expression after doxycycline treatment (1.0 μg ml^−1) for 3 days.

B1: RSPO2: human R-spondin 2 protein (SEQ ID NO:1); conditioned medium or recombinant (Peprotech 120-43) (protein, listed as Homo sapiens)
chain: MQFRLFSFALIILNCMDYSHCQGNRWRRSKRASYVSNPICKGCLSCSKDNGCSRCQQKLFFFLRREGMRQYGECLHSCPSGYYGHRAPDMNRCARCRIENCDSCFSKDFCTKCKVGFYLHRGRCFDECPDGFAPLEETMECVEGCEVGHWSEWGTCSRNNRTCGFKWGLETRTRQIVKKPVKDTILCPTIAESRRCKMTMRHCPGGKRTPKAKEKRNKKKKRKLIERAQEQHSVFLATDRANQ
In the case of B1, the BMP4 signaling result with BMP4 signaling (HEPG2 cells, BMP4 stimulation, treatment with RSPO protein) is “decreased BMP4 signaling”. For the same molecule, in the assay with BMP4 signaling (siRNA knockdown of β-catenin, LGR4/5, LRP5/6, DVL1/2/3 and ROR1/2), the “inhibition of BMP signaling by RSPO2 after knockdown of WNT pathway components” value is “remained unaffected”. For the same molecule, the “phosphorylation of Smad1” value in the assay on Smad1 is reported as “decreased phosphorylation of Smad1”. The “expression of ID1” value with ID1 is given as “decreased”. The Kd in assay [1] is ~4.8 nM. Also, the “ZNRF3 interaction with ALK3 in the presence of the protein” value in the assay with ZNRF3 and ALK3^ECD is on record as “interacted with ALK3”. The “ATRA-induced Smad1-phosphorylation, ID1 and CD11B expression” value with THP-1 cells is “reverted these effects”.

A word on the Kd: it is the free concentration of one partner at which half of the binding sites on the other are occupied at equilibrium, for simple one-to-one binding. Higher therefore signals a looser complex.
